Experiment: Size exclusion chromatography (SEC, gelfiltration) migration of insulin analogues and mixtures relative to the standards X2 (monomer) and HSA
Assay type: physicochemical
Conditions: D 1.2 mM, Zn 0.6 mM
Protocol: Migration of the insulin analogues and insulin analogue combinations were measured in relation to the standards mentioned below.
The test mixtures were formulated with conventional pharmaceutical adjuvants and additives. All mixtures were formulated with 16/16 mM phenol/cresol. Zinc was added as zinc acetate in various amounts. pH was 7.5.
Size exclusion chromatography (SEC) was performed essentially as described in Havelund et al. 2004 Pharmaceutical research, 21, 1498-1504. The chromatographic system was a Superose 6 HR PC 6/30 column (GE healthcare) eluted by tris-buffered isotonic saline (NaCl-140 mM, tris/HCl 10 mM, NaN3 0.01%, pH 7.5 at 37° C., injecting 1% of column volume and using a flow of 90 min per column volume and UV detection at 276 nm. The references were a stable insulin monomeric insulin X2 (AspB9, GluB27 human insulin, zinc free), a stable hexameric insulin: Co(III) insulin, albumin (HSA), and covalent albumin (formed in solution).

For “Lys^B29(N^ε-(N-lithocholyl-γ-glutamyl)) des(B30) human insulin [Compound D]”, the “Measured SEC migration % HSA” value was 78% and the “Measured SEC migration % X2” value was 15%.

Source: US20110009314A1, “Single-Chain Insulin Analogues and Pharmaceutical Formulations Thereof” (Novo Nordisk A/S, priority 2006, published 2011)
